Measured values taken from patent US6365154 (GlaxoSmithKline, dated 2002).

What was measured:
[1] = target: Tie2 receptor on HEL cells or HUVECs (human, UniProt Q02763 23-1124); test: cell-based or functional assay
[2] = target: T1, recombinant Tie2 extracellular domain-Fc fusion (UniProt Q02763 23-748); test: BIAcore SPR; mAb captured on rabbit anti-mouse IgG Fc, Tie2-Fc injected
T1 construct: extracellular domain; also called Tie2-Fc; Tie2 receptor-Fc fusion; not shown: It is probably human IgG Fc: human IgG1 was added to remove anti-Fc mAbs, and the fusion was ca
Experimental: The affinity of the purified mAbs was measured in the BIAcore. Using a flow rate of 10 ul/min, the mAb (diluted in HBS buffer) was injected over a rabbit anti-mouse IgG Fc surface, followed by buffer flow and the RU recorded. Tie2-Fc diluted in HBS buffer was then injected for 120s followed by buffer flow for 240s and regeneration of the sensor chip surface with an injection of 15 ul 0.1 M phosphoric acid. BIAcore software was used for association and dissociation-phase analysis. The murine monoclonal antibodies bound to soluble monomeric Tie2 receptor. The on-rates ($kass$) and off-rates ($kdiss$) were calculated.

T1 sequence (Q02763 23-748): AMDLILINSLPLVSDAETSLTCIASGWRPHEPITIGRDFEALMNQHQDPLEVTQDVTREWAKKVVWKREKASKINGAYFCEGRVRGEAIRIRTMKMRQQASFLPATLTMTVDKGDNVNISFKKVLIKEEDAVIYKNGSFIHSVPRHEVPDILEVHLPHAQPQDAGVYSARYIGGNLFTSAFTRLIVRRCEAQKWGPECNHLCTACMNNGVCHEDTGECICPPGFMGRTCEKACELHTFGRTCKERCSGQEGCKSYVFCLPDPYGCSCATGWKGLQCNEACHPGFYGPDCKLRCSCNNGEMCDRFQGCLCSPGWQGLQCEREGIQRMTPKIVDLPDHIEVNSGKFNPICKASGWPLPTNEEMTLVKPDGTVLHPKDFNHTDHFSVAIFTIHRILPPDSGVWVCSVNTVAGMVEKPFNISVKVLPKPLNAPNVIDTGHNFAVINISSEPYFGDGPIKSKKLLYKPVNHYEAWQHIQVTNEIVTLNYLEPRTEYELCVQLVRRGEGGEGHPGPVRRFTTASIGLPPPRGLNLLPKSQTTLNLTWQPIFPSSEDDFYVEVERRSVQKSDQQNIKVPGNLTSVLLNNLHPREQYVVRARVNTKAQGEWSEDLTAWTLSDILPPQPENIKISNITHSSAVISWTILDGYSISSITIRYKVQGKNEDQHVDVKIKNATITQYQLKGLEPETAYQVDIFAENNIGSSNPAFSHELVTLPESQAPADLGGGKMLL
Chain of Tie2 receptor on HEL cells or HUVECs (Q02763 23-1124): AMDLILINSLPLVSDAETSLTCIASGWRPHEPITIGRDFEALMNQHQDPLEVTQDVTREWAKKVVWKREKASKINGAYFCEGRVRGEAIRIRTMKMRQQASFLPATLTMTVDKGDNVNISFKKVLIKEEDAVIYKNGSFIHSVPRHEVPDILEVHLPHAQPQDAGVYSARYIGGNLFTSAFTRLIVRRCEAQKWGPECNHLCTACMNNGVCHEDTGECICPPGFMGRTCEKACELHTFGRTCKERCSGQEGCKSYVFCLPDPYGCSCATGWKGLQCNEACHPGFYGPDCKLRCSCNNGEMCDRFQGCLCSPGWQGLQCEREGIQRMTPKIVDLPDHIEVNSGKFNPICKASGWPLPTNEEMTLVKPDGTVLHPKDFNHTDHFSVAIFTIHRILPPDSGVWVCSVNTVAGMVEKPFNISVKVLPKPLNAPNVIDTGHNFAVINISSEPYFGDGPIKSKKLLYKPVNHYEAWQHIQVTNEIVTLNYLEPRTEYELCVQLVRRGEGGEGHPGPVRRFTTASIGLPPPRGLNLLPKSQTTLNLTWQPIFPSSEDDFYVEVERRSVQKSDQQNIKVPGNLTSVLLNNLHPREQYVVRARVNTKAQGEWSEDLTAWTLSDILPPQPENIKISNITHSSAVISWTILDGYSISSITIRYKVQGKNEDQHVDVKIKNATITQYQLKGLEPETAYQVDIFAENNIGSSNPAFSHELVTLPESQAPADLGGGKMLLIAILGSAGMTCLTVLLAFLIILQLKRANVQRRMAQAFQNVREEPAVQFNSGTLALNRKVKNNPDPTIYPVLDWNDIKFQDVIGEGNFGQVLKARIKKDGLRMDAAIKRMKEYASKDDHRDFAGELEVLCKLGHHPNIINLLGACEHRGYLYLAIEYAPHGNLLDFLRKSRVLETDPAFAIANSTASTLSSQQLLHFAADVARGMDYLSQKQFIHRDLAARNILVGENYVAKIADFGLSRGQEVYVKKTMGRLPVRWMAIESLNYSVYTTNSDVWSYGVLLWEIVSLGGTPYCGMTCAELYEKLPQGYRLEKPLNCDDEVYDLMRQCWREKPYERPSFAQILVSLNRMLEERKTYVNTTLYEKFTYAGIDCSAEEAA

Row | Tie2 receptor tyrosine phosphorylation (immunoprecipitation and anti-phosphotyrosine Western blot, ratio to Tie-2 staining) [1] [fold over basal] | Kd [2] [nM] | Binder
1 | > 2 | 0.24 | murine monoclonal antibody 15B8 (antibody, V domains shown, Constant regions are mouse IgG heavy and kappa light, going by the PCR primers; also called mAb 15B8; mAb 1 B 8) VH: QVQLQQPGVVLVMPGASVKLSCKASGYTFASYWMHWVKQRPGQGLEWIGEIDPSDSYRNYNQKFKGKATLTVDKSSSTVNMQLSSLTSEDSAVYYCAKTSGIGRAMDYWGQGTSVTVSS VL: DIQMIQSPASLSASVGETVTITCRASENIYSFVTWYQQKQGKSPQLLVFNAKNLVEGVPSSFSGSGSGTQFSLKIDSLQPEDFGTYYCQHHYSIPYTFGGGTKLEMR
2 | – | 3.1 | murine monoclonal antibody 13H10 (antibody, V domains shown, Constant regions are mouse IgG heavy and kappa light, going by the PCR primers; also called mAb 13H10; mAb 13H 10) VH: QIQLVQSGPELKKPGETVKISCKASGYTFTDFSIHWVKQAPGKGLKWMGWINTETGETTYAEDFKGRFAFSLETSASTAYLQINNLKNEDTATYFCSRRYDYDTWFAYWGQGTLVTVS VL: DIVMTQAALSVPVTPGESVSISCRSSSSLLHRNGNTYLYWFLQRPGQSPQLLIYRMSNLASGVPDRFSGSGSGTAFTLRISRVEAEDVGVYYCMQRLEYPFTFGGGTKLEIKR
